EC50 data for 4 molecules are collected here from patent publication US20110268740A1.

Residue numbers refer to the chain shown, from its start.

Assay [1] addresses M2e-VN (Influenza A virus A/VN/1203/04 (H5N1)). The assay is described as follows: ELISA, apparent affinity, purified scFv-msFcγ2c on immobilised M2e-VN. (In general: In an ELISA, binding on a coated surface is turned into a signal by an enzyme label.)
The target in assay [2] is scFv-D005-msFcγ2c.
Assay [3] concerns the target scFv-E040-msFcγ2c.
For assay [4], the target named is scFv-F052-msFcγ2c.

B1: scFv-F052-msFcγ2c (Fc fusion)
chain: DADPAQAAERVMTQSPDALAVSLGERATINCKSSQSLLYSSNNKNYLAWYQKKPGQPPKLLIYWASTRESGVPDRFSGSGSGTEFTLTINSVQAEDVAVYYCQQYFMTPITFGQGTKLEIKGGSSRSSSSGGGGSGGGGQVQLQESGGALVQPGRSLRLSCRTSGLNFGDYPINWVRQAPGKGLEWVGFIKSKSYGVTTEFAASVEGRFTISRDDSRGIAYLQMNSLKTEDTAVYYCTSSSGFLYYFDYWGQGTLVTVSSASTKGPSVTSGQAGRKLEPRVPITQNPCPPLKECPPCAAPDLLGGPSVFIFPPKIKDVLMISLSPMVTCVVVDVSEDDPDVQISWFVNNVEVHTAQTQTHREDYNSTLRVVSALPIQHQDWMSGKEFKCKVNNRALPSPIEKTISKPRGPVRAPQVYVLPPPAEEMTKKEFSLTCMITGFLPAEIAVDWTSNGRTEQNYKNTATVLDSDGSYFMYSKLRVQKSTWERGSLFACSVVHEGLHNHLTTKTISRSLGK
As to B1, the EC50 (commonly the concentration needed to bring the measured effect to its halfway point) in assay [1] worked out at 45.9 pM.
Turning to SLLTEVETPTRNEWECRCSDSSD (modifications not checked) [M2e-VN], the EC50 was 32.5 µM in assay [2], 43.2 µM in assay [3] and 50.8 µM in assay [4].

B2: scFv-D005-msFcγ2c (Fc fusion)
chain: DADPAQAAELVMTQSPDSLAVSLGERATINCKSSQSVLYTSNNKNYLGWYQQKPGQPPNLLIYWASTRESGVPDRFSGSGSGTDFTLTINSVQAEDVAVYYCQQYFMTPITFGQGTRLEIKGGSSRSSSSGGGGSGGGGEVQLVESGGALVQPGRSLRLSCRTSGLNFGDYPINWVRQAPGKGLEWVGFIKSKSYGVTTEFAASVEGRFTISRDDSRGIAYLQMNSLKTEDTAVYYCTSSSGFLYYFDYWGQGTLVTVSSASTKGPSVTSGQAGRKLEPRVPITQNPCPPLKECPPCAAPDLLGGPSVFIFPPKIKDVLMISLSPMVTCVVVDVSEDDPDVQISWFVNNVEVHTAQTQTHREDYNSTLRVVSALPIQHQDWMSGKEFKCKVNNRALPSPIEKTISKPRGPVRAPQVYVLPPPAEEMTKKEFSLTCMITGFLPAEIAVDWTSNGRTEQNYKNTATVLDSDGSYFMYSKLRVQKSTWERGSLFACSVVHEGLHNHLTTKTISRSLGK
For B2, in assay [1], the EC50 came to 51.5 pM.

B3: scFv-E040-msFcγ2c (Fc fusion)
chain: B2 chain with T40S, K44E, G48A, N59K, V144L
Consider B3, for which the EC50 in assay [1] amounted to 46.4 pM.
